Data reported in US8084434 (UNIVERSITY OF MARYLAND, dated 2011).

Target: T1, Flag.RUNX2(P409A) (Homo sapiens (Human), UniProt Q13950 20-521)
T1 construct: also called mutant RUNX2; RUNX2 mutant
Experiment: co-immunoprecipitation, Flag.RUNX2(P409A) and HA.YAP
Experimental: Mutation of the first proline to an alanine completely abolished transcriptional activity. We reasoned that if YAP was directly interacting with RUNX2, a mutation of the first proline to an alanine in RUNX2 would reduce YAP binding and not affect the repression of the p21 CIP1 promoter. The mutant RUNX2, designated RUNX2 (P409A), was generated and its ability to interact with YAP was assessed. […] We expected that the mutant RUNX2 would retain its ability to bind DNA since the P409A mutation was downstream of the Runt DNA binding domain (amino acids 50-177). To measure RUNX2(P409A) DNA binding, DNA precipitation assays using the wild type 20-mer, double-stranded oligonucleotide from the p21 CIP1 promoter site A were performed using nuclear lysates from HEK293 cells transfected with two mutant Flag.RUNX2(P409A) clones. Both RUNX2(P409A) mutant clones retained DNA-binding activity. After verification of DNA binding, the ability of the RUNX2 mutant protein to repress p21CIP1 promoter activity was determined. NIH3T3 cells were transfected with either RUNX2 or RUNX2(P409A) and luciferase activity was measured. Both mutant RUNX2(P409A) clones and the wild-type RUNX2 were strong repressors of the p21CIP1 promoter. However, HA.YAP was unable to relieve p21 CIP1 promoter repression by the mutant Flag.RUNX2(P409A). […]

T1 sequence (Q13950 other isoform, or with tags, fused parts or gaps P409A P409A): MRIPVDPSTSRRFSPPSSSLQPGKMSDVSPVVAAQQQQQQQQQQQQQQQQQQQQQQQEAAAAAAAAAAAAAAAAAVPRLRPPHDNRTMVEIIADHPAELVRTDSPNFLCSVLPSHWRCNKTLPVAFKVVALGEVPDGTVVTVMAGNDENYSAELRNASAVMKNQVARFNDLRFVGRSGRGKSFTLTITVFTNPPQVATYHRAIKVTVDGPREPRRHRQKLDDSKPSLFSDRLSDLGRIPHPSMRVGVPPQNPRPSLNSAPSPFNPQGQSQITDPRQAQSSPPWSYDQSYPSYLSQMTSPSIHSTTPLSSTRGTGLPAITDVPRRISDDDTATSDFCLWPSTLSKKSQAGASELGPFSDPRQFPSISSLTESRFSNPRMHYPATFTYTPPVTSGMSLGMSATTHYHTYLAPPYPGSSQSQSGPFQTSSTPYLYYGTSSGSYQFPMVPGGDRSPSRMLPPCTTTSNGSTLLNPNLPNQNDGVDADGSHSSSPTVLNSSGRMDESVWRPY

binding result: no binding
B1: HA.YAP (other, not shown: small tags and cut ends)
chain: MDPGQQPPPQPAPQGQGQPPSQPPQGQGPPSGPGQPAPAATQAAPQAPPAGHQIVHVRGDSETDLEALFNAVMNPKTANVPQTVPMRLRKLPDSFFKPPEPKSHSRQASTDAGTAGALTPQHVRAHSSPASLQLGAVSPGTLTPTGVVSGPAATPTAQHLRQSSFEIPDDVPLPAGWEMAKTSSGQRYFLNHIDQTTTWQDPRKAMLSQMNVTAPTSPPVQQNMMNSASAMNQRISQSAPVKQPPPLAPQSPQGGVMGGSNSNQQQQMRLQQLQMEKERLRLKQQELLRQVRPQELALRSQLPTLEQDGGTQNPVSSPGMSQELRTMTTNSSDPFLNSGTYHSRDESTDSGLSMSSYSVPRTPDDFLNSVDEMDTGDTINQSTLPSQQNRFPDYLEAIPGTNVDLGTLEGDGMNIEGEELMPSLQEALSSDILNDMESVLAATKLDKESFLTWL
notes: Expressed in HEK293 cells and assayed in nuclear lysates; also called HA-tagged YAP; YAP65
